The target in test [1] is cynomolgus monkey CTLA4-his protein (Acro biosystems, Cat#CT4-C5227) (cynomolgus monkey) (UniProt G7PL88). Briefly: SPR, Biacore T200; benchmark on Protein G chip, CTLA4-his as analyte. (In general: In SPR one partner is held on a chip, and binding of the other changes the refractive index at the surface.)
The target is the same in test [2]. The test is described as follows: SPR, Biacore; antibody captured on anti-human IgG CM5 chip, CTLA4-his as analyte.

pKd: −log10 of the molar value.

One may read the pKd as the negative decadic logarithm of the Kd, by convention in mol/L.

cynomolgus monkey CTLA4-his protein (Acro biosystems, Cat#CT4-C5227) (cynomolgus monkey), sequence (G7PL88 entry or part of it): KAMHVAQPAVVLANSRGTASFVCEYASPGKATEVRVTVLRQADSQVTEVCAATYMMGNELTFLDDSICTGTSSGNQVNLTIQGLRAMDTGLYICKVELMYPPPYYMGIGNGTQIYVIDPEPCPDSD

Regarding “Yervoy® (Bristol-Myers Squibb Co, Cat# NDC: 0003-2327-11) (antibody)”, the pKd in test [1] was 8.53; in test [2], 8.66.
